According to paper PMC6744409:

Target: LptB2FG from Shigella flexneri (Shigella flexneri) (UniProt P0A9V4)

“LptC from Shigella flexneri (subunit of sfLptB2FGC) (from UniProt P0ADW2 1-191) (natural protein)” gave an ATPase activity of purified sfLptB2FGC compared with sfLptB2FG under the same conditions of 50 % less.
